Patent publication US20240254202A1 (CONSEJO NACIONAL DE INVESTIGACIONES CIENT FICAS Y T CNICAS …, published 2024)
Numbering of substitutions follows the chain as printed.

B1: NbCoV_78 (VHH)
VHH: QVQLQESGGGLVQAGGSLRLSCVASGRAFSSSSMGWFRQAPGKEREFVAAIRWSDDNTVYVDSVKGRFAISRDNAKNTVYLQMNSLKPEDTAVYYCAATGLGYRYAVLESRSEYRYWGQGTQVTVSS
B2: NbCoV_46 (VHH)
VHH: QVQLQESGGGLVQAGDSLRLSCAASGRTFSSLSAGWFRQAPGKEREFVAAIRWSDYNTYYVDSVKGRFTISRDNAKNTVYLQMDSLKPEDTAVYYCAATALGYRYASLESRNEYRYWGQGTQVTVSS
B3: NbCoV_31 (VHH)
VHH: QVQLQESGGGLVQAGGSLRLSCAASGRTFSRSAVAWFRQAPGKEREFVAGISWSGRNVNYANSVKGRFTISRDSTKNTVYLQMNSLKPEDTAVYYCATSQFGSGTSDSEQYDYWGQGTQVTVSS
B4: NbCoV_44 (VHH)
VHH: QVQLQESGGGLVQAGGSLRLSCAASGRTVSYRVMGWFRQAPGKEREFVAFVDWSSGTAYYAESVQGRFIMSRDTADNTGFLQMNNLKPEDTAVYYCAADPFFRVIAYSDPKRYSYWGQGTQVTVSS
B5: NbCoV_104 (VHH)
VHH: QVQLQESGGGLVQPGGSLRLSCAASGSIFRVMGWYRQAPGKEHDLVATITRSGDTNYADSVKGRFTISRDNTKNTVYLQMNNLKPEDTDVYYCYARNFVGHNPDVWGQGTQVTVSS
notes: also called Nb 104
B6: NbCoV_32 (VHH)
VHH: QVQLQESGGGSVQPGGSLRLSCAVSRSRFSLVTMGWYRQAPGKERELVAAIAIGGSTKYADSVKGRFTISRDNAKSTVYLQMNSLQPEDTAVYYCNEARVYDSNWYPRDYWGQGTQVTVSS
B7: NbCoV_48 (VHH)
VHH: QVQLQESGGGLVQPGGSLRLSCVASRSIGSINHMAWYRKAPGKERELVASITLSPSETVYYTEVVKGRFAISKGNAQNTLYLQMNSLKPEDTAVYYCHFRQIRAIADDVYWGQGTQVTVSS
B8: NbCoV_71 (VHH)
VHH: QVQLQESGGGLVQAGGSLRLSCAASGLTFGYTATAWFRQAPGKEREFVARIFKRGGYTYYSDSVKGRFTVSRDSAKDTVYLQMNSLKSEDTAVYYCAVAREWSDLDFRDGYDYWGQGTQVTVSS
B9: NbCoV_110 (VHH)
VHH: QVQLQESGGGLVQAGDSLRLSCAASGRTFGSHATAWFRQAPGKEREFVARIFWRGDYTYYADSVKGRFTISRDSAKNTVYLQMNSLKSEDTAVYYCAVARSWSDLDFENGYDYWGQGTQVTVSS
notes: also called Nb 110
B10: NbCoV_10 (VHH)
VHH: QVQLQESGGGLVQAGGSLHLSCTASGSENMLRWYAVGWYRQAPGKQRELVATITRGGSTNVVDSVKGRFTISRDNAKNMVALQMNSLKPEDTAVYSCAAAYAPYTDYHPVEYVYWGQGTQVTVSS
notes: also called Nb 10; 10 Mebus
B11: NbCoV_39 (VHH)
VHH: QVQLQESGGGLVQAGGSLRLSCAASGRTFSSTAMAWFRQAPGQEREFVATISWSGDNTKYADSVKGRFTISRDNAKNTVYLQMNSLKPEDTAVYYCAADPGNFGVPIEYFMFDYWGQGTQVTVSS
notes: also called Nb 39; 39A
B12: NbCoV_145 (VHH)
VHH: QVQLQESGGGLVQAGGSLRLSCAASGRTFSSYAMGWFRQAPGKEREFVAVINWSGANTRYTDSVKGRFSISRDNAKNTVYLQMNSLKPEDTAVYYCAADPGNFGVPIEHFMYDYWGQGTQVTVSS
notes: also called Nb 145
B13: NbCoV_29 (VHH)
VHH: QVQLQESGGGLVQAGGSLRLSCAASGRTLYAMGWFRQAPGKEREFVAAKSWNGGNTYYADSVKGRFTISKDNAKNTVYLQMNSLKPEDTAVYNCAASSWDSRGSSNYVHYDYWGQGTQVTVSS
B14: NbCoV_45 (VHH)
VHH: B13 VHH with A23V, K49T, Y57N, A59G, D60E, W99R, S104T, N106T, V108A, H109S
notes: also called Nb 45; Nb45
B15: NbCoV_136 (VHH)
VHH: QVQLQESGGGLVQTGGSLRLSCAASGRTASSYTMGWFRQAAGKERDFVAAIRESLGYTNYADSVKGRFTISRDNANNTVYLQMNSLKPEDTAVYYCAAYEGIRYSSTRADFYNYWGQGTQVTVSS
B16: NbCoV_125 (VHH)
VHH: QVQLQESGGGLVQPGGSLRLSCAASAHFFSGGAMGWYRQAPGKERELVATITGGGDTNYAEHVKGRCTISSDISDNTVYLQMISLKPDDTAVYYCYARDLLQHPFWGQGTQVTVSS
B17: NbCoV_27 (VHH)
VHH: QVQLQESGGGLVQPGGSLRLSCAASGSGFSLRVMGWYRQAPGKEHRLVATISRTGITNYADSVKGRFTISRDNAKDTVYLQMNNLKPEDTDVYYCYARNFVGDDFNLWGQGTQVTVSS
B18: NbCoV_43 (VHH)
VHH: QVQLQESGGGLVQPGGSLRLSCVASGSIGSINHMAWFRKPPGKERELVASITLAPDEIAYYADSVKGRFAISKGNAQPTLYLQMNSLKPEDTAVYYCHFRQIRANAHDVYWGQGTQVTVSS
notes: also called Nb 43

Assays:
[1] = target: T1, Receptor Binding Domain (RBD) of the SARS-COV-2 protein S (SARS-CoV-2, UniProt P0DTC2 319-541); experiment: ELISA, purified nanobody, RBD coated
[2] = target: T1, Receptor Binding Domain (RBD) of the …; experiment: phage ELISA, RBD coated
[3] = target: Spike protein of wild-type virus isolate USA-WA1/2020 (SARS-CoV-2, UniProt P0DTC2 14-1273); experiment: cell-based or functional assay
[4] = target: Peptide 125 of the Spike peptide array (B.E.I resources NR-52402); experiment: peptide array ELISA, 100 ng peptide coated, 100 ng nanobody per well
[5] = target: Peptide 175 of the Spike peptide array (B.E.I resources NR-52402); experiment: as above
[6] = target: Peptide 16 of the Spike peptide array (B.E.I resources NR-52402); experiment: as above
[7] = target: T1, Receptor Binding Domain (RBD) of the …; experiment: as told in Example 8
[8] = target: Peptide 84 of the Spike peptide array (B.E.I resources NR-52402); experiment: peptide array ELISA, 100 ng peptide coated, 100 ng nanobody per well
[9] = target: Peptide 59 of the Spike peptide array (B.E.I resources NR-52402); experiment: as above

Row | Binder | EC50 [1] [nM] | other results
1 | B1 | 16.6 | –
2 | B2 | – | binding result [2]: no binding
3 | B3 | 137 | –
4 | B4 | 16.8 | –
5 | B5 | 5.45 | wildtype VN, plaque reduction assay, neutralizing activity [3]: 0.977 nM; OD 405 nm [4]: 0.731 OD 405 nm; OD 405 nm [5]: 0.503 OD 405 nm
6 | B6 | 83.6 | –
7 | B7 | 1.78 | –
8 | B8 | 1.63 | –
9 | B9 | 32.4 | OD 405 nm [6]: 0.64 OD 405 nm
10 | B10 | – | binding result [7]: binds; OD 405 nm [8]: 0.226 OD 405 nm
11 | B11 | 0.29 | wildtype VN, plaque reduction assay, neutralizing activity [3]: 0.244 nM; OD 405 nm [9]: 0.423 OD 405 nm
12 | B12 | 4.63 | –
13 | B13 | 55.9 | –
14 | B14 | – | binding result [2]: no binding
15 | B15 | 13.4 | –
16 | B16 | – | OD 405 nm [8]: 0.214 OD 405 nm; binding result [2]: binds
17 | B17 | 0.7 | –
18 | B18 | 0.18 | wildtype VN, plaque reduction assay, neutralizing activity [3]: 3.12 nM; OD 405 nm [8]: 0.555 OD 405 nm
